In article PMC5181381:

How the values were obtained:
[1] = molecular target: truncated form of turkey β1-adrenergic receptor, β1AR^∆NC (turkey) (UniProt P07700)
[2] = molecular target: truncated form of turkey β1-adrenergic receptor, β1AR^∆NC (turkey) (UniProt P07700); experiment: SEC; purified β1AR^∆NC in LMNG mixed with a 1.2-fold molar excess of mini-Gs393, on ice 4 h; Superdex-200 10/300; 10 mM HEPES pH 7.5, 100 mM NaCl, 1 mM MgCl2, 1 μM ascorbic acid, 1 μM isoprenaline, 0.002% LMNG; peak fractions analysed by SDS-PAGE
[3] = molecular target: non-lipidated Gβ1γ2 dimer (UniProt P62873); experiment: SEC; purified mini-Gs399 mixed with non-lipidated Gβ1γ2 dimer in an equimolar ratio, on ice 4 h; Superdex-200 10/300; 10 mM HEPES pH 7.5, 100 mM NaCl, 1 mM MgCl2, 1 μM GDP, 0.1 mM TCEP
[4] = molecular target: minimally thermostabilised turkey β1AR construct β1AR-84 (turkey) (UniProt P07700)
[5] = molecular target: truncated form of turkey β1-adrenergic receptor, β1AR^∆NC (turkey) (UniProt P07700); remark: listed apart in the source

“Mini-Gs393 (final mini-Gs construct) (domain or fragment)” showed an Apparent Tm of β1AR^∆NC in DDM, measured by ^3H-NE binding (°C) [1] of 34.1 °C and a stoichiometry N [2] of 1.

With mini-Gs399 (domain or fragment) the stoichiometry N [3] was 1.

“soluble heterotrimeric Gs in the presence of the nanobody Nb35 (from UniProt P63092 1-394; P62873 1-340; P59768 1-71) (complex)” gave an Apparent Tm of β1AR^∆NC in DDM, measured by ^3H-NE binding (°C) [1] of 35.8 °C, a fold increase of the isoprenaline affinity of membrane-embedded β1AR-84 (competition with 3H-DHA, 25 μM binding partner, 20°C) [4] of 162 fold and a fold shift of the isoprenaline affinity of membrane-embedded β1AR^∆NC (competition with 3H-DHA, 25 μM binding partner, 20°C) [5] of 6 fold.
